Source: patent US20260242735A1 (UNIVERSIT T BASEL, published 2026)

Columns and labels:
Experiment in all cases: alanine scan, flow cytometry;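 note: HEK293-T cells transiently expressing single-residue alanine mutants of CD33 (alanine swapped to serine), antibody binding read by fluorescence in duplicate, background-subtracted, expressed relative to wild-type CD33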
[1] = target: human CD33 K52A (human, UniProt P20138 18-364)
[2] = target: human CD33 I47A (human, UniProt P20138 18-364)
[3] = target: human CD33 E63A (human, UniProt P20138 18-364)
[4] = target: human CD33 E27A (human, UniProt P20138 18-364)
[5] = target: human CD33 P48A (human, UniProt P20138 18-364)
[6] = target: human CD33 N76A (human, UniProt P20138 18-364)
[7] = target: human CD33 P19A (human, UniProt P20138 18-364)
[8] = target: human CD33 L92A (human, UniProt P20138 18-364)
[9] = target: human CD33 F90A (human, UniProt P20138 18-364)
[10] = target: human CD33 L23A (human, UniProt P20138 18-364)
[11] = target: human CD33 I67A (human, UniProt P20138 18-364)
[12] = target: human CD33 H57A (human, UniProt P20138 18-364)
[13] = target: human CD33 Y59A (human, UniProt P20138 18-364)
[14] = target: human CD33 P46A (human, UniProt P20138 18-364)
[15] = target: human CD33 A74S (human, UniProt P20138 18-364)
[16] = target: human CD33 Y50A (human, UniProt P20138 18-364)
[17] = target: human CD33 A65S (human, UniProt P20138 18-364)
[18] = target: human CD33 P72A (human, UniProt P20138 18-364)
[19] = target: human CD33 E33A (human, UniProt P20138 18-364)
[20] = target: human CD33 W22A (human, UniProt P20138 18-364)
[21] = target: human CD33 D18A (human, UniProt P20138 19-364)
[22] = target: human CD33 D51A (human, UniProt P20138 18-364)
[23] = target: human CD33 P40A (human, UniProt P20138 18-364)
[24] = target: human CD33 T42A (human, UniProt P20138 18-364)
[25] = target: human CD33 E84A (human, UniProt P20138 18-364)
[26] = target: human CD33 V82A (human, UniProt P20138 18-364)
[27] = target: human CD33 V25A (human, UniProt P20138 18-364)
[28] = target: human CD33 V31A (human, UniProt P20138 18-364)
[29] = target: human CD33 L35A (human, UniProt P20138 18-364)
[30] = target: human CD33 Q87A (human, UniProt P20138 18-364)
[31] = target: human CD33 H45A (human, UniProt P20138 18-364)
[32] = target: human CD33 K77A (human, UniProt P20138 18-364)
[33] = target: human CD33 E81A (human, UniProt P20138 18-364)
[34] = target: human CD33 E85A (human, UniProt P20138 18-364)
[35] = target: human CD33 G58A (human, UniProt P20138 18-364)
[36] = target: human CD33 R62A (human, UniProt P20138 18-364)
[37] = target: human CD33 R69A (human, UniProt P20138 18-364)
[38] = target: human CD33 V73A (human, UniProt P20138 18-364)
[39] = target: human CD33 R89A (human, UniProt P20138 18-364)
[40] = target: human CD33 S28A (human, UniProt P20138 18-364)
[41] = target: human CD33 V56A (human, UniProt P20138 18-364)
[42] = target: human CD33 W60A (human, UniProt P20138 18-364)
Sequence of human CD33 W60A (P20138 18-364 W60A limits assumed): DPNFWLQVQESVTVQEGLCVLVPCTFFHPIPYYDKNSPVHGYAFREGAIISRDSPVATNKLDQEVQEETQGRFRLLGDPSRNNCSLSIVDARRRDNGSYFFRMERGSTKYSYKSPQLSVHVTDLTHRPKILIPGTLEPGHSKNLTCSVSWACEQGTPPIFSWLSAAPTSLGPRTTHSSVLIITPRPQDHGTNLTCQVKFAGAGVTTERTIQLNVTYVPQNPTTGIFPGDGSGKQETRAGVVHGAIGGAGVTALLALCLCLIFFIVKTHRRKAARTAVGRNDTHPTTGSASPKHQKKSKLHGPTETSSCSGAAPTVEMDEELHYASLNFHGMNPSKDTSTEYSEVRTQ

Sequence of human CD33 P72A (P20138 18-364 P72A limits assumed): as the sequence (P20138 18-364 W60A limits assumed) above, with A43W, P55A counted along it
Sequence of human CD33 V73A (P20138 18-364 V73A limits assumed): as the sequence (P20138 18-364 W60A limits assumed) above, with A43W, V56A counted along it
Sequence of human CD33 H45A (P20138 18-364 H45A limits assumed): as the sequence (P20138 18-364 W60A limits assumed) above, with H28A, A43W counted along it
Sequence of human CD33 Q87A (P20138 18-364 Q87A limits assumed): as the sequence (P20138 18-364 W60A limits assumed) above, with A43W, Q70A counted along it
Sequence of human CD33 E63A (P20138 18-364 E63A limits assumed): as the sequence (P20138 18-364 W60A limits assumed) above, with A43W, E46A counted along it
Sequence of human CD33 T42A (P20138 18-364 T42A limits assumed): as the sequence (P20138 18-364 W60A limits assumed) above, with T25A, A43W counted along it
Sequence of human CD33 K52A (P20138 18-364 K52A limits assumed): as the sequence (P20138 18-364 W60A limits assumed) above, with K35A, A43W counted along it
Sequence of human CD33 P40A (P20138 18-364 P40A limits assumed): as the sequence (P20138 18-364 W60A limits assumed) above, with P23A, A43W counted along it
Sequence of human CD33 D18A (P20138 18-364 D18A limits assumed): as the sequence (P20138 18-364 W60A limits assumed) above, with D1A, A43W counted along it
Sequence of human CD33 L35A (P20138 18-364 L35A limits assumed): as the sequence (P20138 18-364 W60A limits assumed) above, with L18A, A43W counted along it
Sequence of human CD33 F90A (P20138 18-364 F90A limits assumed): as the sequence (P20138 18-364 W60A limits assumed) above, with A43W, F73A counted along it
Sequence of human CD33 P46A (P20138 18-364 P46A limits assumed): as the sequence (P20138 18-364 W60A limits assumed) above, with P29A, A43W counted along it
Sequence of human CD33 E81A (P20138 18-364 E81A limits assumed): as the sequence (P20138 18-364 W60A limits assumed) above, with A43W, E64A counted along it

B1: Refmab #3 (antibody, V domains shown)
VH: QVQLVQSGAEVKKPGSSVKVSCKASGYTFTDYNMHWVRQAPGQGLEWIGYIYPYNGGTGYNQKFKSKATITADESTNTAYMELSSLRSEDTAVYYCARGRPAMDYWGQGTLVTVSS
VL: DIQMTQSPSSLSASVGDRVTITCRASESVDNYGISFMNWFQQKPGKAPKLLIYAASNQGSGVPSRFSGSGSGTDFTLTISSLQPDDFATYYCQQSKEVPWTFGQGTKVEIK
notes: Full-length format is human IgG1 Fc silent (PG-LALA); The alanine scan used IgG or Fab
[1]
  Mean % WT Binding: 80.3 % WT
[2]
  Mean % WT Binding: 165 % WT
[3]
  Mean % WT Binding: 124 % WT
[4]
  Mean % WT Binding: 153 % WT
[5]
  Mean % WT Binding: 167 % WT
[6]
  Mean % WT Binding: 148 % WT
[7]
  Mean % WT Binding: 75.2 % WT
[8]
  Mean % WT Binding: 129 % WT
[9]
  Mean % WT Binding: 138 % WT
[10]
  Mean % WT Binding: 91.5 % WT
[11]
  Mean % WT Binding: 142 % WT
[12]
  Mean % WT Binding: 182 % WT
[13]
  Mean % WT Binding: 145 % WT
[14]
  Mean % WT Binding: 8.8 % WT
[15]
  Mean % WT Binding: 115 % WT
[16]
  Mean % WT Binding: 109 % WT
[17]
  Mean % WT Binding: 143 % WT
[18]
  Mean % WT Binding: 108 % WT
[19]
  Mean % WT Binding: 94.9 % WT
[20]
  Mean % WT Binding: 58.6 % WT
[21]
  Mean % WT Binding: 37.8 % WT
[22]
  Mean % WT Binding: 126 % WT
[23]
  Mean % WT Binding: 122 % WT
[24]
  Mean % WT Binding: 198 % WT
[25]
  Mean % WT Binding: 137 % WT
[26]
  Mean % WT Binding: 141 % WT
[27]
  Mean % WT Binding: 109 % WT
[28]
  Mean % WT Binding: 127 % WT
[29]
  Mean % WT Binding: 102 % WT
[30]
  Mean % WT Binding: 161 % WT
[31]
  Mean % WT Binding: 55.1 % WT
[32]
  Mean % WT Binding: 192 % WT
[33]
  Mean % WT Binding: 114 % WT
[34]
  Mean % WT Binding: 112 % WT
[35]
  Mean % WT Binding: 87.4 % WT
[36]
  Mean % WT Binding: 91.8 % WT
[37]
  Mean % WT Binding: 188 % WT
[38]
  Mean % WT Binding: 149 % WT
[39]
  Mean % WT Binding: 126 % WT
[40]
  Mean % WT Binding: 193 % WT
[41]
  Mean % WT Binding: 42.6 % WT
[42]
  Mean % WT Binding: 28.3 % WT

B2: Refmab #4 (antibody, V domains shown)
VH: QVQLVQSGAEVKKPGESVKVSCKASGYTFTNYGMNWVKQAPGQGLEWMGWINTYTGEPTYADKFQGRVTMTTDTSTSTAYMEIRNLGGDDTAVYYCARWSWSDGYYVYFDYWGQGTSVTVSS
VL: DIVMTQSPDSLTVSLGERTTINCKSSQSVLDSSTNKNSLAWYQQKPGQPPKLLLSWASTRESGIPDRFSGSGSGTDFTLTIDSPQPEDSATYYCQQSAHFPITFGQGTRLEIK
notes: as for B1
[1]
  Mean % WT Binding: 9.8 % WT
[2]
  Mean % WT Binding: 144 % WT
[3]
  Mean % WT Binding: 84.1 % WT
[4]
  Mean % WT Binding: 42.9 % WT
[5]
  Mean % WT Binding: 8.4 % WT
[6]
  Mean % WT Binding: 34.7 % WT
[7]
  Mean % WT Binding: 20.4 % WT
[8]
  Mean % WT Binding: 85.2 % WT
[9]
  Mean % WT Binding: 82.3 % WT
[10]
  Mean % WT Binding: 23.7 % WT
[11]
  Mean % WT Binding: 67.2 % WT
[12]
  Mean % WT Binding: 67.3 % WT
[13]
  Mean % WT Binding: 97.6 % WT
[14]
  Mean % WT Binding: 135 % WT
[15]
  Mean % WT Binding: 72.5 % WT
[16]
  Mean % WT Binding: 3.5 % WT
[17]
  Mean % WT Binding: 84 % WT
[18]
  Mean % WT Binding: 94.6 % WT
[19]
  Mean % WT Binding: 87.1 % WT
[20]
  Mean % WT Binding: 187 % WT
[21]
  Mean % WT Binding: 110 % WT
[22]
  Mean % WT Binding: 36 % WT
[23]
  Mean % WT Binding: 43 % WT
[24]
  Mean % WT Binding: 67.4 % WT
[25]
  Mean % WT Binding: 120 % WT
[26]
  Mean % WT Binding: 144 % WT
[27]
  Mean % WT Binding: 49.1 % WT
[28]
  Mean % WT Binding: 97.9 % WT
[29]
  Mean % WT Binding: 94.5 % WT
[30]
  Mean % WT Binding: 94.2 % WT
[31]
  Mean % WT Binding: 134 % WT
[32]
  Mean % WT Binding: 123 % WT
[33]
  Mean % WT Binding: 90.6 % WT
[34]
  Mean % WT Binding: 110 % WT
[35]
  Mean % WT Binding: 62.2 % WT
[36]
  Mean % WT Binding: 104 % WT
[37]
  Mean % WT Binding: 118 % WT
[38]
  Mean % WT Binding: 67.2 % WT
[39]
  Mean % WT Binding: 71.6 % WT
[40]
  Mean % WT Binding: 79.9 % WT
[41]
  Mean % WT Binding: 56.8 % WT
[42]
  Mean % WT Binding: 1 % WT
